In patent US20160168251A1 (MorphoSys, published 2016):

Assays:
[1] = biological target: T1, human NPRA on HEK293 cells bound to ANP (human, UniProt P01160 124-151); assay: cell-based or functional assay
T1 sequence: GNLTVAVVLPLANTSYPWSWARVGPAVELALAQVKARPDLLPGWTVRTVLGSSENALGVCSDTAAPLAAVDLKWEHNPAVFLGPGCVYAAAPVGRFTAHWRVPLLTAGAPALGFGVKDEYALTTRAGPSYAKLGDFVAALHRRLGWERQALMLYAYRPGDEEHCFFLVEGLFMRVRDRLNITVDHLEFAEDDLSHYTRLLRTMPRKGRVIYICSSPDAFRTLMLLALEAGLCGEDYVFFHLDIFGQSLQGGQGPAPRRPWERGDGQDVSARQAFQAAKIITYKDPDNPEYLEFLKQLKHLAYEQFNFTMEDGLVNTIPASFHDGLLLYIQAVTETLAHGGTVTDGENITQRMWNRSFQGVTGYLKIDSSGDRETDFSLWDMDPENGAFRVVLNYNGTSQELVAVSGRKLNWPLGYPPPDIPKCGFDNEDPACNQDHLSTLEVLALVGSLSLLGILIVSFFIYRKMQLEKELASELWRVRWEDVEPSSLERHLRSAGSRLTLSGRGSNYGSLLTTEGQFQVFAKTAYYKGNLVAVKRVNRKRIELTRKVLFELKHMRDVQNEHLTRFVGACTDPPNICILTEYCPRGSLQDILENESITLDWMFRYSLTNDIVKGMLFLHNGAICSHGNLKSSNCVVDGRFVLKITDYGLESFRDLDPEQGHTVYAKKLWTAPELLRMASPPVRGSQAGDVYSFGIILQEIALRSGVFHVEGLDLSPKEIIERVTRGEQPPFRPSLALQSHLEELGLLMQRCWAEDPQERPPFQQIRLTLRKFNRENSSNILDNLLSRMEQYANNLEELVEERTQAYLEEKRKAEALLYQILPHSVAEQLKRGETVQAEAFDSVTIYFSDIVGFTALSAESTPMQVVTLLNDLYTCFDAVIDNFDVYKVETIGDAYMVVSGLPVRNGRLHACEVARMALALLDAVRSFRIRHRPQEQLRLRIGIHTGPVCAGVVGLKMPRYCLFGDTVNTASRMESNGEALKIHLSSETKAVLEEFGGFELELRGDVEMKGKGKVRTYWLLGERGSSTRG
T1 sequence (peptide): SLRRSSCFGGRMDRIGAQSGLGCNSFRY

[2] = biological target: T2, NPRA-Fc fusion protein bound to ANP (human, UniProt P01160 124-151); assay: SPR (Biacore 3000), NPRA-Fc amine-coupled on CM5, analyte with 100 nM human ANP
T2 construct: mature; Receptor-ligand complex; 'human ANP' is stated for Biacore, plain 'ANP' for ELISA and HXMS; also called NPRA-Fc+ANP

[3] = biological target: T1, human NPRA on HEK293 cells bound to ANP; assay: FACS, HEK NPRA cells with ANP

B1: 5502 Fab (Fab, V domains shown)
VH: QVQLQQSGPGLVKPSQTLSLTCAISGDSVSSRSASWSWIRQSPGRGLEWLGRIYYRSKWYNDYAVSVKSRITINPDTSKNQFSLQLNSVTPEDTAVYYCARMDVPSFRYFDVWGQGTLVTVSS
VL: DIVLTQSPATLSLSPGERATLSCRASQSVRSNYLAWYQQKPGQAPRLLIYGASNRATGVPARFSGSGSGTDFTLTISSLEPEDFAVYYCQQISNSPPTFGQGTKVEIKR
- EC50 of ANP, cGMP production in HEK NPRA cells, with 400 nM Fab [1]: 0.3 nM
- factor by which the potency of ANP is enhanced (cGMP, 400 nM Fab) [1]: 10 fold

B2: 5591 Fab (Fab, V domains shown)
VH: QVQLQQSGPGLVKPSQTLSLTCAISGDSVSSRSASWSWIRQSPGRGLEWLGRTYYRSHWYYEYAQSVKSRITINPDTSKNQFSLQLNSVTPEDTAVYYCARMDVPSFRYFDVWGQGTLVTVSS
VL: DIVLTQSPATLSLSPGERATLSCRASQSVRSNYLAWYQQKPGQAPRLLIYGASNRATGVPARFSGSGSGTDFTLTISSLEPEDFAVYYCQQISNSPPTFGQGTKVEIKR
- Kd [2]: 1.16 nM
- koff [2]: 0.00103 s⁻¹
- kon [2]: 884000 M⁻¹ s⁻¹

B3: 5064 IgG1 (antibody, V domains shown)
VH: QVQLQQSGPGLVKPSQTLSLTCAISGDSVSSRSASWSWIRQSPGRGLEWLGRIYYRSKWYNDYAVSVKSRITINPDTSKNQFSLQLNSVTPEDTAVYYCARMDVPSFRYFDVWGQGTLVTVSS
VL: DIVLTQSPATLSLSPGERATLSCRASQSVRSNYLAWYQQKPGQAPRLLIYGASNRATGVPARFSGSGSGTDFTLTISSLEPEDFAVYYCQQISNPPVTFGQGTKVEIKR
notes: Human IgG1 format
- EC50 (read off the curve) [3]: ~0.5 nM

B4: 5507 Fab (Fab, V domains shown)
VH: QVQLQQSGPGLVKPSQTLSLTCAISGDSVSSRSASWSWIRQSPGRGLEWLGRIYYRSKWYNDYAVSVKSRITINPDTSKNQFSLQLNSVTPEDTAVYYCARMDVPSFRYFDVWGQGTLVTVSS
VL: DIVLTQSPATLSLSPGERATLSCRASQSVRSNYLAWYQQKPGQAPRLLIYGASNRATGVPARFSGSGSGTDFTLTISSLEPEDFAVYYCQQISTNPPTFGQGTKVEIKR
- EC50 of ANP, cGMP production in HEK NPRA cells, with 400 nM Fab [1]: 0.5 to 0.6 nM
